Results published in the RNAGym collection of RNA variant scans (doi:10.1073/pnas.2313332121).
Variants at the floor of the assay were thinned out.

B1: TPR 5TU (parent)
chain: GGAUCUUCUCGAUCUAACAAAAAAGACAAAUCUGCCACAAAGCUUGAGAGCAUCUUCGGAUGCAGAGGCGGCAGCCUUCGGUGGCGCGAUAGCGCCAACGUUCUCAACUAUGACACGCAAAACGCGUGCUCCGUUGAAUGGAGUUUAUCAUG

Variants of: B1
Test: polymerase ribozyme fitness, log enrichment relative to wild type (log ratio); higher = more active; in vitro selection for triplet polymerase activity
Method in brief: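 To select mutant libraries of each subunit of a heterodimeric triplet polymerase ribozyme, built by PCR and transcribed, each was annealed with a biotinylated primer, partner subunit and triplets, then incubated frozen at −7 °C. Extended constructs were gel-excised, captured on streptavidin beads and amplified by RT-PCR, in one round carried out in triplicate. Illumina sequencing of input and output libraries kept genotypes with ≥10 input reads and ≥1 read per output. Fitness is the base-2 logarithm of genotype enrichment relative to wild-type enrichment, from inverse-variance-weighted replicate averages.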
For GGAUCUUCUCGAUCUAACAAAAAAGACAAAUCUGCCACAAAGCGUGAGAGCAUCAUCGGAUGCAGAGGCGGCAGCCUUCGGUGGCGCGAUAGAGCCAACGUUCUCAACUAUGACACGCAGAACGCGUGCUCCGUUGAAUGGAGUUUAUCAUG [U44G U55A C93A A120G], the “polymerase ribozyme fitness (log ratio)” value was no more than -4.2.
In the case of GGAUCUUCUCGAUCUAACAAAAAAGACAAAUCUGCCACAAAGCGUGAGAGCAUCAUCGGAUGCAGAGGCGGCAGCCUUCGGUGGCGCGAUUGCGCCAACGUUCUCAACUAUGACACGCAAAACGCGUGCUCCGUUGAAUGCAGUUUAUCAUG [U44G U55A A91U G141C], the “polymerase ribozyme fitness (log ratio)” value is reported as no more than -4.2.
With GGAUCUUCUCGAUCUAACAAAAAAGACAAAUCUGCCACAAAGCCUGAGAGCAUCUUCGGACGCGGAGGCGGCAGCCUUCGGUGGUGGGAUAGCGAGAAAGUUCUCAACUAUGACACGCAAAACGCGUGCUCCGUUAAAUGGAGUUUAUCAUG [U44C U61C A64G C85U C87G C95A C96G C99A G136A] the “polymerase ribozyme fitness (log ratio)” value was no more than -4.2.
In the case of GGAUCUUCUCGAUCUAACAAAAAAGACAAAUCUGCCACAAAGCAUGAGAGCAUCUUCGGAUGCAGAGGCGGCAGCCUUCGGUGGCGCGAUAGUGCCAACGUUCUCAACUAUGACACGCAGAACGCGUGCUCCGUUGAAUGGAGUUUAUCAUG [U44A C93U A120G], the “polymerase ribozyme fitness (log ratio)” value is reported as -4.11.
In the case of GGAUCUUCUCGAUCUAACAAAAAAGACAAAUCUGCCACAAAGCAUGAGAGCAUCUUCGGAUGCAGAGGCGGCAGCCUUCGGUGGCGCGAUAGCGUCAACGUUCUCAACUAUGACACGCAAAACGCGUGCUCCGUUGAAUGGAGUUUAUCAUG [U44A C95U], the “polymerase ribozyme fitness (log ratio)” value is reported as -3.87.
In the case of GGAUCUUCUCGAUCUAACAAAAAAGACAAAUCUGCCACAAAGCAUGAGAGCAUCUUCGGAUGCAGAGGCGGCAGCCUUCGGUGGCGCGAUAGCGACAACGUUCUCAACUAUGACACGCAAAACGCGUGCUCCGUUGAAUGGAGUUUAUCAUG [U44A C95A], the “polymerase ribozyme fitness (log ratio)” value is reported as -4.11.
In the case of GGAUCUUCUCGAUCUAACAAAAAAGACAAAUCUGCCACAAAGCGAGCGAGCAUAUUUGGAAGCAGAGGCGGCAGCCUUCGGUGGCGCGAUAGUGCCAACGUUCUCAACUAUGACACGCAAAACGCGUGCUCCGUUGAAUGGAGUUUAUCAUG [U44G U45A A47C C54A C57U U61A C93U], the “polymerase ribozyme fitness (log ratio)” value is reported as no more than -4.2.
For GGAUCUUCUCGAUCUAACAAAAAAGACAAAUCUGCCACAAAGCAUGAGAGCAUCUUCGGAUGCAGAGGCGGCAGCCUUCGGUGGCGCGAUAGGGCCAACGUUCUCAACUAUGGCACGCAAAACGCGUGCUCCGAUGAAUGGAGUUUAUCAUG [U44A C93G A113G U134A], the “polymerase ribozyme fitness (log ratio)” value was no more than -4.2.
In the case of GGAUCUUCUCGAUCUAACAAAAAAGACAAAUCUGCCACAAAGCCUGAGAGCAUCUACGGAUGCAGAGGCGGCAGCCUUCGGUGGCGCGAUAGCGCCAACGUUCUCAACUAUGACACGCAAAACGCGUGCUCCGUUGAAUGGAGUUUAUCAUG [U44C U56A], the “polymerase ribozyme fitness (log ratio)” value is reported as -3.
In the case of GGAUCUUCUCGAUCUAACAAAAAAGACAAAUCUGCCACAAAGCCUGAGAGCAUCUUCGGAUGCAGAGGCGGCAGCCUUCGGUGGCGCGAUAGCGCCAGCGUUCUCAACUAUGACACGCAAAACGCGUGCUCCGUUGAAUGGAGUUUAUCAUG [U44C A98G], the “polymerase ribozyme fitness (log ratio)” value is reported as -3.97.
With GGAUCUUCUCGAUCUAACAAAAAAGACAAAUCUGCCACAAAGCGUGAGAGCAUUUUCGGAUGCAGAGGCGGCAGCCUUCGGUGGCGUGAUUGCGCCAACGUUCUCAACUAUGACACGCAAAACGCGUGCUCCGUUGAAUGCACUUUAUCAUG [U44G C54U C87U A91U G141C G143C] the “polymerase ribozyme fitness (log ratio)” value was no more than -4.2.
For GGAUCUUCUCGAUCUAACAAAAAAGACAAAUCUGCCACAAAGCAUGAGAGCAUCUUCGGAUGCAGAGGCGGCAGCCUUCGGCGGAGCGAUAGCGCCAACGUUCUCAACUAUGACACGCAAAACGCGUGCUCCGUUGAAUGGAGUUUAUCAUG [U44A U82C C85A], the “polymerase ribozyme fitness (log ratio)” value was no more than -4.2.
With GGAUCUUCUCGAUCUAACAAAAAAGACAAAUCUGCCACAAAGCAUGAGAUCAUCUUCGGAUGCAGAGGCGGCAGGCUUUGGUGGCGAGAUAGCGCCAACGUUCUCAACUAUGACACGCAAAACGUGUGCUCCGUUGAAUGGAGUUUAUCAUG [U44A G50U C75G C79U C87A C125U] the “polymerase ribozyme fitness (log ratio)” value was no more than -4.2.
In the case of GGAUCUUCUCGAUCUAACAAAAAAGACAAAUCUGCCACAAAGCGUGAGAGCAUCUUUGGAUGCAGAGGCGGCAGCCUUCGGUGGCGCGAUUGCGCCAACGUUCUCAACCAUGACACGCAAAACGCGUGCUCCGUUGAAUGGAGUUUAUCAUG [U44G C57U A91U U109C], the “polymerase ribozyme fitness (log ratio)” value is reported as no more than -4.2.
For GGAUCUUCUCGAUCUAACAAAAAAGACAAAUCUGCCACAAAGCAUGAGAGCAGCUUCGGAUGCAGAGGCGGCAGCCUUCGGUGGCGCGAUAGCGCCAACGUUCUCAACUAUGACACGCAAAACGCGUGCUCCGUUGAAUGGAGUUUAUCAUG [U44A U53G], the “polymerase ribozyme fitness (log ratio)” value was no more than -4.2.
For GGAUCUUCUCGAUCUAACAAAAAAGACAAAUCUGCCACAAAGCAUGAGAGCAUCUUCGGAUGCAGAGGCGGCAGCCUUCGGUGGCGCGAUAGCGUCUACGUUCUCAACUAUGACACGCAAAACGCGUGCUCCGUUGAAUGGAGUUUAUCAUG [U44A C95U A97U], the “polymerase ribozyme fitness (log ratio)” value was no more than -4.2.
With GGAUCUUCUCGAUCUAACAAAAAAGACAAAUCUGCCACAAAGCAUGAGAGCAUCUUCGGAUGCAGAGGCGGCAGCCUUCGGUGGGGCGAUAGCGCCAACGUUCUCAACGAUGACACGCAAAACGCGUGCUCCGUUGAAUGGAGUUCAUCAUG [U44A C85G U109G U146C] the “polymerase ribozyme fitness (log ratio)” value was no more than -4.2.
For GGAUCUUCUCGAUCUAACAAAAAAGACAAAUCUGCCACAAAGCAUGAGAGCAUCUUCGGAUGCAGAGGCGGCAGCCUUCGGUGGCGCGAUAGCGCCAACGUUGUCAACUAUGACUCGCAAAACGCGUGCUCCGUUGAAUGGAGUUUAUCAUG [U44A C103G A115U], the “polymerase ribozyme fitness (log ratio)” value was no more than -4.2.
In the case of GGAUCUUCUCGAUCUAACAAAAAAGACAAAUCUGCCACAAAGCAUGAGAGCAUCUUCGGAUGCAGAGGCGGCAGCCUUCGGUGGCGCGAUAGCACCAACGUUCUCAACUAUGACAUGCAAAACGCGUGCUCCGUUGAAUGGAGUUUAUCAUU [U44A G94A C116U G152U], the “polymerase ribozyme fitness (log ratio)” value is reported as -4.16.
